The data set deals with the molecule itself. Put plainly: SEC.

B1: Physcomitrella patens adenosine kinase 1 (PpADK1) (enzyme, UniProt O49923 1-343, looked up)
chain: MASEGVLLGMGNPLLDISCVVDDAFLEKYGLTLNNAILAEDKHLPMYKELAANPDVEYIAGGATQNTIRIAQWMLGESNATSYFGCVGKDEYGDRMFKLASEGGVNIRYDVDEDLPTGTCGVLVVKGERSLVANLSAANKYKIDHLKKPENWAFVEKAKYIYSAGFFLTVSPESMMTVAKHAAETGKYYMINLAAPFICQFFKDPLMELFPYVDFIFGNESEARAFAQVQGWETEDTKVIAVKLAALPKAGGTHKRVAVITQGTDPTIVAEDGKVTEFPVTPIPKEKLVDTNAAGDSFVGGFLSQLVLGKDIAQCVRAGNYAASVIIQRSGCTFPSKPSFESQ
On to B1, for which the “stoichiometry N” value amounted to 2.

For the origin of these results see publication doi:10.1101/2024.12.05.626941 (bioRxiv, 2024).
